Measured values: patent publication US20040235726A1, “Glucagon-like peptides (glp-1) and treatment of respiratory distress” (priority 2001, published 2004)
Where no end group is shown, it is not given here.

What follows are binders tested against human GLP-1 receptor (human, UniProt P43220 24-463) (assay: cell-based or functional assay).

Row | Binder | GLP-1 receptor activation relative to Val^8-GLP-1 (7-37) OH
1 | HVEGTFTSDVSSFLEEQAAKEFIAWLVKGRG-OH [Val^8-Phe^19-Glu^22-GLP-1 (7-37) OH] | 1.5 relative to Val^8-GLP-1 (7-37) OH
2 | HVEGTFTSDVSSYLEEQAAKIFIAWLVKGRG-OH [Val^8-Glu^22-Ile^27-GLP-1 (7-37) OH] | 2 relative to Val^8-GLP-1 (7-37) OH
3 | HVEGTFTSDVSSYLEGQAAKEFIDWLVKGRG-OH [Val^8-Asp^30-GLP-1 (7-37) OH] | 0.3 relative to Val^8-GLP-1 (7-37) OH
4 | HVEGTFTSDVSSYLEGQAAKEFIAWLVKPRG-OH [Val^8-Pro^35-GLP-1 (7-37) OH] | 0.2 relative to Val^8-GLP-1 (7-37) OH
5 | HVEGTFTSDVSSYLEHQAAKEFIAWLVKGRG-OH [Val^8-His^22-GLP-1 (7-37) OH] | 0.3 relative to Val^8-GLP-1 (7-37) OH
6 | HVEGTYTSDVSSYLEEQAAKEFIAWLVKGRG-OH [Val^8-Tyr^12-Glu^22-GLP-1 (7-37) OH] | 2.7 relative to Val^8-GLP-1 (7-37) OH
7 | HVEGTFTSDVSSYLESQAAKEFIAWLVKGRG-OH [Val^8-Ser^22-GLP-1 (7-37) OH] | 1.1 relative to Val^8-GLP-1 (7-37) OH
8 | HVEGTFTSDVSKYLEEQAAKEFIAWLVKGRG-OH [Val^8-Lys^18-Glu^22-GLP-1 (7-37) OH] | 2.5 relative to Val^8-GLP-1 (7-37) OH
9 | HVEGTWTSDVSSYLEEQAAKEFIAWLVKGRG-OH [Val^8-Trp^12-Glu^22-GLP-1 (7-37) OH] | 1.7 relative to Val^8-GLP-1 (7-37) OH
10 | HVEGTFTSDWSSYLEEQAVKEFIAWLIKGRG-OH [Val^8-Trp^16-Glu^22-Val^25-Ile^33-GLP-1 (7-37) OH] | 5 relative to Val^8-GLP-1 (7-37) OH
11 | HVEGTFTSDISSYLEEQAAKEFIAWLVKGRG-OH [Val^8-Ile^16-Glu^22-GLP-1 (7-37) OH] | 3.3 relative to Val^8-GLP-1 (7-37) OH
12 | HVEGTFTSDVSSWLEEQAAKEFIAWLVKGRG-OH [Val^8-Trp^19-Glu^22-GLP-1 (7-37) OH] | 3.2 relative to Val^8-GLP-1 (7-37) OH
13 | HVEGTFTSDVSSYLEEQAIKEFIAWLVKGRG-OH [Val^8-Glu^22-Ile^25-GLP-1 (7-37) OH] | 3.1 relative to Val^8-GLP-1 (7-37) OH
14 | HVEGTFTSDVSSYLEGQAAKEFIAWLVKHRG-OH [Val^8-His^35-GLP-1 (7-37) OH] | 0.9 relative to Val^8-GLP-1 (7-37) OH
15 | HVEGTFTSDVSSYFEEQAAKEFIAWLVKGRG-OH [Val^8-Phe^20-Glu^22-GLP-1 (7-37) OH] | 2.7 relative to Val^8-GLP-1 (7-37) OH
16 | HVEGTWTSDVSSYLEGQAAKEFIAWLVKGRG-OH [Val^8-Trp^12-GLP-1 (7-37) OH] | 1.1 relative to Val^8-GLP-1 (7-37) OH
17 | HVEGTFTSDVSSYLEKQAAKEFIAWLVKGR-NH2 [Val^8-Lys^22-GLP-1 (7-36) NH2] | 1.2 relative to Val^8-GLP-1 (7-37) OH
18 | HVEGTFTSDWSSYLEEQAAKEFIAWLIKGRG-OH [Val^8-Trp^16-Glu^22-Ile^33-GLP-1 (7-37) OH] | 4.1 relative to Val^8-GLP-1 (7-37) OH
19 | HVEGTFTSDVSSYLEGQAAKEFIHWLVKGRG-OH [Val^8-His^30-GLP-1 (7-37) OH] | 0.4 relative to Val^8-GLP-1 (7-37) OH
20 | HVEGTFTSDYSSFLEGQAAKEFIAWLVKGRG-OH [Val^8-Tyr^16-Phe^19-GLP-1 (7-37) OH] | 2.8 relative to Val^8-GLP-1 (7-37) OH
21 | HVEGTFTSDVSSYLEAQAAKEFIAWLVKGRG-OH [Val^8-Ala^22-GLP-1 (7-37) OH] | 1.2 relative to Val^8-GLP-1 (7-37) OH
22 | HVEGTFTSDVSSYLEDQAAKEFIAWLVKGRG-OH [Val^8-Asp^22-GLP-1 (7-37) OH] | 0.9 relative to Val^8-GLP-1 (7-37) OH
23 | HVEGTFTSDESSYLEGQAAKEFIAWLVKGRG-OH [Val^8-Glu^16-GLP-1 (7-37) OH] | 0.1 relative to Val^8-GLP-1 (7-37) OH
24 | HVEGTFTSDASSYLEGQAAKEFIAWLVKGRG-OH [Val^8-Ala^16-GLP-1 (7-37) OH] | 0.25 relative to Val^8-GLP-1 (7-37) OH
25 | HVEGTFTSDVSSYLEGQAAHEFIAWLVKGRG-OH [Val^8-His^26-GLP-1 (7-37) OH] | 3.5 relative to Val^8-GLP-1 (7-37) OH
26 | HVEGTFTSDVSSYLEKQAAKEFIAWLVKGRG-OH [Val^8-Lys^22-GLP-1 (7-37) OH] | 1.3 relative to Val^8-GLP-1 (7-37) OH

Row | Binder | GLP-1 receptor activation relative to Val^8-GLP-1 (7-37) OH
27 | HVEGTFTSDVSIYLEEQAAKEFIAWLVKGRG-OH [Val^8-Ile^18-Glu^22-GLP-1 (7-37) OH] | 4 relative to Val^8-GLP-1 (7-37) OH
28 | HVEGTFTSDYSSWLEEQAAKEFIAWLVKGRG-OH [Val^8-Tyr^16-Trp^19-Glu^22-GLP-1 (7-37) OH] | 3.5 relative to Val^8-GLP-1 (7-37) OH
29 | HVEGTFTSDVSSYLEEQAAKEFIAWLVKGRH-OH [Val^8-Glu^22-His^37-GLP-1 (7-37) OH] | 4.7 relative to Val^8-GLP-1 (7-37) OH
30 | HVEGTFTSDVSSYKEGQAAKEFIAWLVKGRG-OH [Val^8-Lys^20-GLP-1 (7-37) OH] | 0.7 relative to Val^8-GLP-1 (7-37) OH
31 | HVEGTFTSDFSSYLEEQAAKEFIAWLVKGRG-OH [Val^8-Phe^16-Glu^22-GLP-1 (7-37) OH] | 2.3 relative to Val^8-GLP-1 (7-37) OH
32 | HVEGTFTSDVSSYLEGKAAKEFIAWLVKGRG-OH [Val^8-Lys^23-GLP-1 (7-37) OH] | 0.4 relative to Val^8-GLP-1 (7-37) OH
33 | HVEGTFTSDVSSYLEGQAAKEFIAWLAKGRG-OH [Val^8-Ala^33-GLP-1 (7-37) OH] | 0.2 relative to Val^8-GLP-1 (7-37) OH
34 | HVEGTFTSDLSSYLEEQAAKEFIAWLVKGRG-OH [Val^8-Leu^16-Glu^22-GLP-1 (7-37) OH] | 4.3 relative to Val^8-GLP-1 (7-37) OH
35 | HGEGHFTSDVSSYLEGQAAKEFIAWLVKGRG-OH [Gly^8-His^11-GLP-1 (7-37) OH] | 0.6 relative to Val^8-GLP-1 (7-37) OH
36 | HVDGIFTSDYSSYLEEQAAKEFIAWLVKGRG-OH [Val^8-Asp^9-Ile^11-Tyr^16-Glu^22-GLP-1 (7-37) OH] | 4.3 relative to Val^8-GLP-1 (7-37) OH
37 | HVEGTYTSDYSSYLEGQAAKEFIAWLVKGRG-OH [Val^8-Tyr^12-Tyr^16-GLP-1 (7-37) OH] | 1.5 relative to Val^8-GLP-1 (7-37) OH
38 | HVEGTFTSDVSSYLEEQALKEFIAWLVKGRG-OH [Val^8-Glu^22-Leu^25-GLP-1 (7-37) OH] | 2.8 relative to Val^8-GLP-1 (7-37) OH
39 | HVEGTFTSDVSSYLEGQAAKHFIAWLVKGRG-OH [Val^8-His^27-GLP-1 (7-37) OH] | 0.8 relative to Val^8-GLP-1 (7-37) OH
40 | HVEGTFTSDVSFYLEEQAAKEFIAWLVKGRG-OH [Val^8-Phe^18-Glu^22-GLP-1 (7-37) OH] | 2 relative to Val^8-GLP-1 (7-37) OH
41 | HVEGTFTSDWSSYLEEQAVKEFIAWLVKGRG-OH [Val^8-Trp^16-Glu^22-Val^25-GLP-1 (7-37) OH] | 4.4 relative to Val^8-GLP-1 (7-37) OH
42 | HVEGTFTSDVSSYLEGQAAKEFISWLVKGRG-OH [Val^8-Ser^30-GLP-1 (7-37) OH] | 0.4 relative to Val^8-GLP-1 (7-37) OH
43 | HVEGTFTSDVSSYLEGQALKEFIAWLVKGRG-OH [Val^8-Leu^25-GLP-1 (7-37) OH] | 0.5 relative to Val^8-GLP-1 (7-37) OH
44 | HGEGTFTSDVSSYLEGQAAKEFIAWLVKGRG-OH [Gly^8-GLP-1 (7-37) OH] | 1.7 relative to Val^8-GLP-1 (7-37) OH
45 | HVEGTFTSDVSSYLEEQAAKEFIAWLVKGRG-OH [Val^8-Glu^22-GLP-1 (7-37) OH] | 2.9 relative to Val^8-GLP-1 (7-37) OH
46 | HVEGTFTSDLSSYLEGQAAKEFIAWLVKGRG-OH [Val^8-Leu^16-GLP-1 (7-37) OH] | 1.1 relative to Val^8-GLP-1 (7-37) OH
47 | HGEGTFTSDVSSYLEGQAAKEFIEWLVKGRG-OH [Gly^8-Glu^30-GLP-1 (7-37) OH] | 0.6 relative to Val^8-GLP-1 (7-37) OH
48 | HVEGTFTSDVSSYLEGQAAEEFIAWLVKGRG-OH [Val^8-Glu^26-GLP-1 (7-37) OH] | 3.3 relative to Val^8-GLP-1 (7-37) OH
49 | HAEGTFTSDVSSYLEQQAAKEFIAWLVKGRG-OH [Gln^22-GLP-1 (7-37) OH] | 0.9 relative to Val^8-GLP-1 (7-37) OH
50 | HVEGTFTSDVSSYLEGQAAKEFIAWLVEGRG-OH [Val^8-Glu^34-GLP-1 (7-37) OH] | 0.4 relative to Val^8-GLP-1 (7-37) OH
51 | HVEGTYTSDVSSYLEGQAAKEFIAWLVKGR-NH2 [Val^8-Tyr^12-GLP-1 (7-36) NH2] | 1.1 relative to Val^8-GLP-1 (7-37) OH
